Test results taken from publication PMC2500128 (The Journal of Cell Biology, 2008).
Read-outs that look alike come from different tables or passages of the source.

What was measured:
[1] = biological target: microtubules (Cy5-labeled tubulin from porcine brain) (porcine (purified from porcine brain)) (UniProt P02550); assay: single-molecule fluorescence motility assay
[2] = biological target: microtubules (Cy5-labeled tubulin from porcine brain) (porcine (purified from porcine brain)) (UniProt P02550); assay: single-molecule fluorescence motility assay; remark: listed apart in the source
[3] = biological target: the molecule itself; assay: single-molecule fluorescence and photobleaching

Molecule: Eg5-513-GFP (from UniProt P28025 1-513) (domain or fragment)
- time bound to the microtubule [1]: < 2 s

Molecule: full-length Xenopus laevis Eg5-GFP (from UniProt P28025 1-1067) (natural protein)
- average duration of motile events (binding events) [1]: 34 s
- average duration of motile events (binding events) [2]: 16 s

B1: Eg5-513-GFP (domain or fragment, X. laevis)
chain: MSSQNSFMASKKEDKGKNIQVVVRCRPFNQLERKASSHSVLECDSQRKEVYVRTGEVNDKLGKKTYTFDMVFGPAAKQIEVYRSVVCPILDEVIMGYNCTIFAYGQTGTGKTFTMEGERSSDEEFTWEQDPLAGIIPRTLHQIFEKLSENGTEFSVKVSLLEIYNEELFDLLSPSPDVGERLQMFDDPRNKRGVIIKGLEEISVHNKDEVYHILERGAARRKTASTLMNAYSSRSHSVFSVTIHMKETTVDGEELVKIGKLNLVDLAGSENIGRSGAVDKRAREAGNINQSLLTLGRVITALVERTPHIPYRESKLTRILQDSLGGRTKTSIIATVSPASINLEETVSTLDYANRAKSIMNKPEVNQKLTKKALIKEYTEEIERLKRELAAAREKNGVYLSSENYEQLQGKVLSQEEMITEYTEKITAMEEELKSISELFADNKKELEECTTILQCKEKELEETQNHLQESKEQLAQESFVVSAFETTEKKLHGTANKLLSTVRETTRDVSGLGSSGGGGSGGGGSGGGGS
- stoichiometry N [3]: 2
